Experimental data as given in EP0614981A1.

Biological target: IFNγ (UniProt P01579)
Assay: cell-based or functional assay

UniProt P01579, sequence (P01579 24-166 limits assumed): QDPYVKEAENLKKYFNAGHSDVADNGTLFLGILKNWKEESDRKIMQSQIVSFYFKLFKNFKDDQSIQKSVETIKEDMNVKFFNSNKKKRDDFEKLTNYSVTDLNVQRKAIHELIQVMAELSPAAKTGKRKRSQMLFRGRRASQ

| Substance | IC50 nM, inhibition of IFNγ antiviral activity (CPE, WISH cells, EMC virus) [nM] | IC50 µg/ml, inhibition of IFNγ antiviral activity (CPE, WISH cells, EMC virus) [µg/mL] |
| --- | --- | --- |
| hIFNγR-HG1 (from UniProt P01857 99-330) (Fc fusion) | 26 | 4.4 |
| hIFNγR-HG3 (from UniProt P01860 99-377) (Fc fusion) | 11 | 2 |
| soluble human IFNγ receptor (shIFNγR) | 216 | 6.7 |
